Source: patent US20250297029A1 (NANJING LEGEND BIOTECH, published 2025)

The binders below were run against T1, GPC3 (UniProt P51654 25-559, limits assumed) (assay: SPR (Biacore T200); scFv-Fc captured by anti-human Fc pAb, GPC3 10-320 nM in flow).
T1 construct: also called antigen GPC3; Glypican 3
Text: (§1) The humanized VLs (VL1 and VL1.M2) were connected to humanized VHs (VH2, VH2.M1, VH2.M5 and VH2.M6) with a (G4S)₃ linker (SEQ ID NO: 10) to construct humanized scFvs. These scFvs were expressed with a C-terminal Fc tag in HEK293 cells. The crude scFv proteins secreted to the cell culture supernatant were used for binding affinity determination using surface plasmon resonance (SPR) on a Biacore T200 machine. Briefly, the scFv protein was captured on the sensor chip pre-coated with goat-anti-human Fc polyclonal antibody (pAb) (Jackson ImmunoResearch, cat #109-005-098) via the interaction between pAb and the Fc tag, then the antigen GPC3 concentration ranging from 10 nM to 320 nM flowed through the sensor chip. After 100 s of association, running buffer (10 mM HEPES, 150 mM NaCl, 3 mM EDTA, 0.005% Tween-20, pH 7.4) flowed through the sensor chip to allow the scFv-GPC3 complex to dissociation. The sensor chip was regenerated using 50 mM HCl between cycles.

T1 sequence (P51654 25-559 limits assumed): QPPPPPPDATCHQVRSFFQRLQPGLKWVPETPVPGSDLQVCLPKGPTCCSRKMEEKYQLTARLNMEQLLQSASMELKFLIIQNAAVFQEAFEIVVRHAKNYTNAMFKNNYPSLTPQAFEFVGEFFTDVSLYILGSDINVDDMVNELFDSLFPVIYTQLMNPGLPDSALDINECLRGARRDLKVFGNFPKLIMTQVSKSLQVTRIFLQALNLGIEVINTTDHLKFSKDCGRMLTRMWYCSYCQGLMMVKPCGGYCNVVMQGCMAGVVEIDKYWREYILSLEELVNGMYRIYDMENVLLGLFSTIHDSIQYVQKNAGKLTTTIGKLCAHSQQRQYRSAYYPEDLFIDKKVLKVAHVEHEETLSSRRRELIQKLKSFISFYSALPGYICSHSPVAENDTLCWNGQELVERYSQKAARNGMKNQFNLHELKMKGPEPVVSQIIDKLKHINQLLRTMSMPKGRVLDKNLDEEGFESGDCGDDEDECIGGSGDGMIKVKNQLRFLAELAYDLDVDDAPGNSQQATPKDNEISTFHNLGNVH

Binder	Kd [nM]	koff [s⁻¹]	kon [M⁻¹ s⁻¹]
mouse anti-GPC3 GC33 scFv (VL-VH) (scFv, also called mouse scFv; not shown: C-terminal Fc tag (human Fc, used only for capture on the anti-human Fc chip) and any junction to it) scFv: DVVMTQTPLSLPVSLGDQASISCRSSQSLVHSNGNTYLHWYLQKPGQSPKLLIYKVSNRFSGVPDRFSGSGSGTDFTLKISRVEAEDLGVYFCSQNTHVPPTFGSGTKLEIKGGGGSGGGGSGGGGSQVQLQQSGAELVRPGASVKLSCKASGYTFTDYEMHWVKQTPVHGLKWIGALDPKTGDTAYSQKFKGKATLTADKSSSTAYMELRSLTSEDSAVYYCTRFYSYTYWGQGTLVTVSA	1.8	0.00023	130000
VL1-VH2 humanized scFv (scFv, not shown: a dimerising Fc or GST, Crude scFv with Fc tag from HEK293 supernatant) scFv: DIVMTQTPLSLSVTPGQPASISCRSSQSLVHSNGNTYLHWYLQKPGQSPQLLIYKVSNRFSGVPDRFSGSGSGTDFTLKISRVEAEDVGVYYCSQNTHVPPTFGQGTKVEIKGGGGSGGGGSGGGGSQVQLVQSGAEVKKPGASVKVSCKASGYTFTDYEMHWVRQAPGQGLEWMGALDPKTGDTAYSQKFKGRVTLTADTSTSTVYMELSSLRSEDTAVYYCTRFYSYTYWGQGTLVTVSS	1.7	0.00029	170000
VL1-VH2.M6 humanized scFv (scFv, not shown: a dimerising Fc or GST, Crude scFv with Fc tag from HEK293 supernatant) scFv: DIVMTQTPLSLSVTPGQPASISCRSSQSLVHSNGNTYLHWYLQKPGQSPQLLIYKVSNRFSGVPDRFSGSGSGTDFTLKISRVEAEDVGVYYCSQNTHVPPTFGQGTKVEIKGGGGSGGGGSGGGGSQVQLVQSGAEVKKPGASVKVSCKASGYTFTSYEMHWVRQAPGQGLEWMGALDPKTGDTAYSQKFQGRVTLTADTSTSTVYMELSSLRSEDTAVYYCTRFYSYTYWGQGTLVTVSS	2	0.00037	190000
VL1-VH2.M5 humanized scFv (scFv, not shown: a dimerising Fc or GST, Crude scFv with Fc tag from HEK293 supernatant) scFv: DIVMTQTPLSLSVTPGQPASISCRSSQSLVHSNGNTYLHWYLQKPGQSPQLLIYKVSNRFSGVPDRFSGSGSGTDFTLKISRVEAEDVGVYYCSQNTHVPPTFGQGTKVEIKGGGGSGGGGSGGGGSQVQLVQSGAEVKKPGASVKVSCKASGYTFTDYEMHWVRQAPGQGLEWMGALDPKTGDTAYSQKFQGRVTLTADTSTSTVYMELSSLRSEDTAVYYCTRFYSYTYWGQGTLVTVSS	1.6	0.00027	170000

Second part, the binder after the results:

Kd [nM]	koff [s⁻¹]	kon [M⁻¹ s⁻¹]	Binder
2.2	0.00035	160000	VL1.M2-VH2 humanized scFv (scFv, not shown: a dimerising Fc or GST, Crude scFv with Fc tag from HEK293 supernatant) scFv: DIVMTQTPLSLSVTPGQPASISCRSSQSLVHSNGNTYLHWYLQKPGQSPQLLIYKVSSRFSGVPDRFSGSGSGTDFTLKISRVEAEDVGVYYCSQNTHVPPTFGQGTKVEIKGGGGSGGGGSGGGGSQVQLVQSGAEVKKPGASVKVSCKASGYTFTDYEMHWVRQAPGQGLEWMGALDPKTGDTAYSQKFKGRVTLTADTSTSTVYMELSSLRSEDTAVYYCTRFYSYTYWGQGTLVTVSS
3	0.00051	170000	VL1.M2-VH2.M1 humanized scFv (scFv, not shown: a dimerising Fc or GST, Crude scFv with Fc tag from HEK293 supernatant) scFv: DIVMTQTPLSLSVTPGQPASISCRSSQSLVHSNGNTYLHWYLQKPGQSPQLLIYKVSSRFSGVPDRFSGSGSGTDFTLKISRVEAEDVGVYYCSQNTHVPPTFGQGTKVEIKGGGGSGGGGSGGGGSQVQLVQSGAEVKKPGASVKVSCKASGYTFTSYEMHWVRQAPGQGLEWMGALDPKTGDTAYSQKFKGRVTLTADTSTSTVYMELSSLRSEDTAVYYCTRFYSYTYWGQGTLVTVSS
1.9	0.00036	190000	VL1-VH2.M1 humanized scFv (scFv, not shown: a dimerising Fc or GST, Crude scFv with Fc tag from HEK293 supernatant) scFv: DIVMTQTPLSLSVTPGQPASISCRSSQSLVHSNGNTYLHWYLQKPGQSPQLLIYKVSNRFSGVPDRFSGSGSGTDFTLKISRVEAEDVGVYYCSQNTHVPPTFGQGTKVEIKGGGGSGGGGSGGGGSQVQLVQSGAEVKKPGASVKVSCKASGYTFTSYEMHWVRQAPGQGLEWMGALDPKTGDTAYSQKFKGRVTLTADTSTSTVYMELSSLRSEDTAVYYCTRFYSYTYWGQGTLVTVSS
2.1	0.00037	170000	VL1.M2-VH2.M5 humanized scFv (scFv, not shown: a dimerising Fc or GST, Crude scFv with Fc tag from HEK293 supernatant) scFv: DIVMTQTPLSLSVTPGQPASISCRSSQSLVHSNGNTYLHWYLQKPGQSPQLLIYKVSSRFSGVPDRFSGSGSGTDFTLKISRVEAEDVGVYYCSQNTHVPPTFGQGTKVEIKGGGGSGGGGSGGGGSQVQLVQSGAEVKKPGASVKVSCKASGYTFTDYEMHWVRQAPGQGLEWMGALDPKTGDTAYSQKFQGRVTLTADTSTSTVYMELSSLRSEDTAVYYCTRFYSYTYWGQGTLVTVSS

Each binder was assayed against T1, GPC3 (assay: SPR as in Example 1 (Biacore T200; scFv-Fc captured, GPC3 in flow)).
Text: as §1
To further improve the humanization of anti-GPC3 scFvs, additional amino acid residues in VH1 and VL1 were mutated to their human germline counterparts. In HCDR2 of VH2.M6, mutations K54S, T55G or both were introduced, yielding VH2.M8 (SEQ ID NO: 11), VH2.M9 (SEQ ID NO: 12) and VH2.M10 (SEQ ID NO: 13) sequences, respectively. Mutation D57S was introduced to VH2.M6, yielding VH2.M11 sequence (SEQ ID NO: 14). All three additional mutations was introduced to VH2.M6, yielding VH2.M12 sequence (SEQ ID NO: 15). Similarly for VL1.M2, an additional N35K mutation was introduced to LCDR1, yielding VL1.M3 (SEQ ID NO: 16). Additional S94M, N96G and V99W mutations were introduced to LCDR3 of VL1.M2 individually, yielding VL1.M6 (SEQ ID NO: 17), VL1.M7 (SEQ ID NO: 18) and VL1.M8 (SEQ ID NO: 19) sequences, respectively. Additional S94M mutations was introduced to LCDR3 of VL1, yielding VL1.M9 (SEQ ID NO: 137) sequence. The binding affinity of these humanized variants were again determined using SPR as described in Example 1 (Table 5).

Kd [nM]	koff [s⁻¹]	kon [M⁻¹ s⁻¹]	Binder
4	0.00021	51000	mouse anti-GPC3 GC33 scFv (VL-VH) (scFv, also called mouse scFv; not shown: C-terminal Fc tag (human Fc, used only for capture on the anti-human Fc chip) and any junction to it) scFv: DVVMTQTPLSLPVSLGDQASISCRSSQSLVHSNGNTYLHWYLQKPGQSPKLLIYKVSNRFSGVPDRFSGSGSGTDFTLKISRVEAEDLGVYFCSQNTHVPPTFGSGTKLEIKGGGGSGGGGSGGGGSQVQLQQSGAELVRPGASVKLSCKASGYTFTDYEMHWVKQTPVHGLKWIGALDPKTGDTAYSQKFKGKATLTADKSSSTAYMELRSLTSEDSAVYYCTRFYSYTYWGQGTLVTVSA
51	0.0034	67000	VL1.M7-VH2.M6 humanized scFv (scFv, not shown: a dimerising Fc or GST) scFv: DIVMTQTPLSLSVTPGQPASISCRSSQSLVHSNGNTYLHWYLQKPGQSPQLLIYKVSSRFSGVPDRFSGSGSGTDFTLKISRVEAEDVGVYYCSQGTHVPPTFGQGTKVEIKGGGGSGGGGSGGGGSQVQLVQSGAEVKKPGASVKVSCKASGYTFTSYEMHWVRQAPGQGLEWMGALDPKTGDTAYSQKFQGRVTLTADTSTSTVYMELSSLRSEDTAVYYCTRFYSYTYWGQGTLVTVSS
6	0.00044	74000	VL1.M2-VH2.M8 humanized scFv (scFv, not shown: a dimerising Fc or GST) scFv: DIVMTQTPLSLSVTPGQPASISCRSSQSLVHSNGNTYLHWYLQKPGQSPQLLIYKVSSRFSGVPDRFSGSGSGTDFTLKISRVEAEDVGVYYCSQNTHVPPTFGQGTKVEIKGGGGSGGGGSGGGGSQVQLVQSGAEVKKPGASVKVSCKASGYTFTSYEMHWVRQAPGQGLEWMGALDPSTGDTAYSQKFQGRVTLTADTSTSTVYMELSSLRSEDTAVYYCTRFYSYTYWGQGTLVTVSS
6.8	0.0005	74000	VL1.M2-VH2.M10 humanized scFv (scFv, not shown: a dimerising Fc or GST) scFv: DIVMTQTPLSLSVTPGQPASISCRSSQSLVHSNGNTYLHWYLQKPGQSPQLLIYKVSSRFSGVPDRFSGSGSGTDFTLKISRVEAEDVGVYYCSQNTHVPPTFGQGTKVEIKGGGGSGGGGSGGGGSQVQLVQSGAEVKKPGASVKVSCKASGYTFTSYEMHWVRQAPGQGLEWMGALDPSGGDTAYSQKFQGRVTLTADTSTSTVYMELSSLRSEDTAVYYCTRFYSYTYWGQGTLVTVSS
8.2	0.0006	74000	VL1.M2-VH2.M9 humanized scFv (scFv, not shown: a dimerising Fc or GST) scFv: DIVMTQTPLSLSVTPGQPASISCRSSQSLVHSNGNTYLHWYLQKPGQSPQLLIYKVSSRFSGVPDRFSGSGSGTDFTLKISRVEAEDVGVYYCSQNTHVPPTFGQGTKVEIKGGGGSGGGGSGGGGSQVQLVQSGAEVKKPGASVKVSCKASGYTFTSYEMHWVRQAPGQGLEWMGALDPKGGDTAYSQKFQGRVTLTADTSTSTVYMELSSLRSEDTAVYYCTRFYSYTYWGQGTLVTVSS
5.7	0.00058	100000	VL1.M6-VH2.M6 humanized scFv (scFv, not shown: a dimerising Fc or GST) scFv: DIVMTQTPLSLSVTPGQPASISCRSSQSLVHSNGNTYLHWYLQKPGQSPQLLIYKVSSRFSGVPDRFSGSGSGTDFTLKISRVEAEDVGVYYCMQNTHVPPTFGQGTKVEIKGGGGSGGGGSGGGGSQVQLVQSGAEVKKPGASVKVSCKASGYTFTSYEMHWVRQAPGQGLEWMGALDPKTGDTAYSQKFQGRVTLTADTSTSTVYMELSSLRSEDTAVYYCTRFYSYTYWGQGTLVTVSS
27	0.0016	61000	VL1.M3-VH2.M6 humanized scFv (scFv, not shown: a dimerising Fc or GST) scFv: DIVMTQTPLSLSVTPGQPASISCRSSQSLVHSNGKTYLHWYLQKPGQSPQLLIYKVSSRFSGVPDRFSGSGSGTDFTLKISRVEAEDVGVYYCSQNTHVPPTFGQGTKVEIKGGGGSGGGGSGGGGSQVQLVQSGAEVKKPGASVKVSCKASGYTFTSYEMHWVRQAPGQGLEWMGALDPKTGDTAYSQKFQGRVTLTADTSTSTVYMELSSLRSEDTAVYYCTRFYSYTYWGQGTLVTVSS
44	0.0042	94000	VL1.M8-VH2.M6 humanized scFv (scFv, not shown: a dimerising Fc or GST) scFv: DIVMTQTPLSLSVTPGQPASISCRSSQSLVHSNGNTYLHWYLQKPGQSPQLLIYKVSSRFSGVPDRFSGSGSGTDFTLKISRVEAEDVGVYYCSQNTHWPPTFGQGTKVEIKGGGGSGGGGSGGGGSQVQLVQSGAEVKKPGASVKVSCKASGYTFTSYEMHWVRQAPGQGLEWMGALDPKTGDTAYSQKFQGRVTLTADTSTSTVYMELSSLRSEDTAVYYCTRFYSYTYWGQGTLVTVSS
